Source: EP4722253A1 (dated 2026)

T1: FcγRIIa (UniProt P12318 34-217)
T1 sequence (looked up): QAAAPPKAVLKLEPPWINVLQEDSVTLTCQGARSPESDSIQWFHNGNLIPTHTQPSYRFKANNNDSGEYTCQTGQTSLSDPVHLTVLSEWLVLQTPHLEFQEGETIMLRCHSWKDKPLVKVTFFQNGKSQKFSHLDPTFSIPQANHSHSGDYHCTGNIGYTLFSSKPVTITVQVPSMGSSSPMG


What was measured:
[1] = biological target: T2, C1q, complement component 1q (UniProt P02745 23-245; P02746 28-253; P02747 29-245); experiment: BLI (Octet HTX), antibody on FAB2G biosensor, C1q in solution
T2 construct: also called Clq

FcγRIIIa = biological target: T3, FcγRIIIa (UniProt P08637 17-208); experiment: BLI (Octet HTX), antibody on FAB2G biosensor, FcγRIIIa in solution
T3 construct: also called FcyRIIIa

FcγRIIa = biological target: T1, FcγRIIa; experiment: BLI (Octet HTX), antibody on FAB2G biosensor, FcγRIIa in solution
FcRn = biological target: T4, FcRn (UniProt P55899 24-297); experiment: BLI (Octet HTX), antibody on FAB2G biosensor, FcRn in solution, pH 6.0
T4 construct: also called neonatal Fc receptor
T4 sequence (P55899 24-297 limits assumed, form in doubt): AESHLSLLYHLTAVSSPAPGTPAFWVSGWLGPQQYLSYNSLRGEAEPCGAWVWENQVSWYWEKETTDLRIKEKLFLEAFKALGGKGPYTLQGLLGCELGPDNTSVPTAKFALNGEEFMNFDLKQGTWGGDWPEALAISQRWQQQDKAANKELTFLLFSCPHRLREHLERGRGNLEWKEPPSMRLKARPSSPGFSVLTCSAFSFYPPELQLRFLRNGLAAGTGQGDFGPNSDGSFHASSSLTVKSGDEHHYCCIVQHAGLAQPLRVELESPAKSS

T3 sequence (P08637 17-208 limits assumed): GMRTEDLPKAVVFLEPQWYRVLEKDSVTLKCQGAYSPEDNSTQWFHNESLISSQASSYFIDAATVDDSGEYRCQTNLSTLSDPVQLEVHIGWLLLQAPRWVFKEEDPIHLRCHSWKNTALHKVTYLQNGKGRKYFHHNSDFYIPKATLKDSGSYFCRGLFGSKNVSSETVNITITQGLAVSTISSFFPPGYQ
T2 sequence (P02745 23-245 limits assumed, chain 1 of 3): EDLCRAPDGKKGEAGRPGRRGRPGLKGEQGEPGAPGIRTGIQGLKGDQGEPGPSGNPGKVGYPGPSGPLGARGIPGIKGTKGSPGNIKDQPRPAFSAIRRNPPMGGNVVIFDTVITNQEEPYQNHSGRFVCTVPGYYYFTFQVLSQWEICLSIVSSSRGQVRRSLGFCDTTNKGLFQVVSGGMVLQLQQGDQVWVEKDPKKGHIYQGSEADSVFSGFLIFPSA
T2 sequence (P02746 28-253 limits assumed, chain 2 of 3): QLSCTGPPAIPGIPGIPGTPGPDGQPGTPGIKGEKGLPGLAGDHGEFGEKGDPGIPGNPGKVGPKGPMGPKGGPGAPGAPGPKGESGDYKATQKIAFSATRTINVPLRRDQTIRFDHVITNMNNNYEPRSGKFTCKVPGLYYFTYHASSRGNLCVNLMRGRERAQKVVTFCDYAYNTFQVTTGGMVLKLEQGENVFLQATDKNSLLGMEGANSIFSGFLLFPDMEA
T2 sequence (P02747 29-245 limits assumed, chain 3 of 3): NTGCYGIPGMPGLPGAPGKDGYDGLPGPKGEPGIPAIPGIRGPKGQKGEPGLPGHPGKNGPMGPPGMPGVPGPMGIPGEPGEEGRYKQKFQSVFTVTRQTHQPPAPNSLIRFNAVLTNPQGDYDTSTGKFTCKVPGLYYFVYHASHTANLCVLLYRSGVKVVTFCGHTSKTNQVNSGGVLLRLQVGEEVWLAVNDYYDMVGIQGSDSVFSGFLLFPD

Binder | Kd [1] [µM] | Kd (FcγRIIIa) [µM] | Kd (FcγRIIa) [µM] | Kd (FcRn) [µM]
Q-SBL-101 (bispecific antibody, human IgG1, kappa, copies: 1 + 1 + 1 + 1) heavy 1: not shown heavy 2: EVQLVESGGGLVQPGGSLRLSCAASGYTFTNYGMNWVRQAPGKGLEWVGWINTYTGEPTYAADFKRRFTFSLDTSKSTAYLQMNSLRAEDTAVYYCAKYPHYYGSSHWYFDVWGQGTLVTVSSASTKGPSVFPLAPSSKSTSGGTAALGCLVKDYFPEPVTVSWNSGALTSGVHTFPAVLQSSGLYSLSSVVTVPSSSLGTQTYICNVNHKPSNTKVDKKVEPKSCDKTHTCPPCPAPELLGGPSVFLFPPKPKDTLMISRTPEVTCVVVDVSHEDPEVKFNWYVDGVEVHNAKTKPREEQYNSTYRVVSVLTVLHQDWLNGKEYKCKVSNKALPAPIEKTISKAKGQPREPQVCTLPPSRREMTKNQVSLWCLVKGFYPSDIAVEWESNGQPENNYKTTPPVLDSDGSFFLYSKLTVDKSRWQQGNVFSCSVMHEALHNHYTQKSLSLSPGK light 1: not shown light 2: not shown | 0.036 | 0.5 | 2.46 | 0.73
Q-SBL-117 (bispecific antibody, human IgG1, kappa, copies: 1 + 1 + 1 + 1) heavy 1: not shown heavy 2: EVQLVESGGGLVQPGGSLRLSCAASGYTFTNYGMNWVRQAPGKGLEWVGWINTYTGEPTYAADFKRRFTFSLDTSKSTAYLQMNSLRAEDTAVYYCAKYPHYYGSSHWYFDVWGQGTLVTVSSASTKGPSVFPLAPSSKSTSGGTAALGCLVKDYFPEPVTVSWNSGALTSGVHTFPAVLQSSGLYSLSSVVTVPSSSLGTQTYICNVNHKPSNTKVDKKVEPKSCDKTHTCPPCPAPELLGGPSVFLFPPKPKDTLMISRTPEVTCVVVDVSHEDPEVKFNWYVDGVEVHNAKTKPREEQYNSTYRVVSVLTVLHQDWLNGKEYKCKVSNKALPAPIEKTISKAKGQPREPQVCTLPPSRKEMTKNQVSLWCLVKGFYPSDIAVEWESNGQPENNYKTTPPVLDSDGSFFLYSKLTVDKSRWQQGNVFSCSVMHEALHNHYTQKSLSLSPGK light 1: not shown light 2: not shown | 0.04 | 0.36 | 2.55 | –
Q-SBL-136 (bispecific antibody, human IgG1, kappa, copies: 1 + 1 + 1 + 1) heavy 1: not shown heavy 2: EVQLVESGGGLVQPGGSLRLSCAASGYTFTNYGMNWVRQAPGKGLEWVGWINTYTGEPTYAADFKRRFTFSLDTSKSTAYLQMNSLRAEDTAVYYCAKYPHYYGSSHWYFDVWGQGTLVTVSSASTKGPSVFPLAPSSKSTSGGTAALGCLVKDYFPEPVTVSWNSGALTSGVHTFPAVLQSSGLYSLSSVVTVPSSSLGTQTYICNVNHKPSNTKVDKKVEPKSCDKTHTCPPCPAPELLGGPSVFLFPPKPKDTLMISRTPEVTCVVVDVSHEDPEVKFNWYVDGVEVHNAKTKPREEQYNSTYRVVSVLTVLHQDWLNGKEYKCKVSNKALPAPIEKTISKAKGQPREPQVCTLPPSREEMTKNQVSLWCLVKGFYPSDIAVEWESNGQPENNYKTTPPVLDSDGSFFLYSTLTVDKSRWQQGNVFSCSVMHEALHNHYTQKSLSLSPGK light 1: not shown light 2: not shown | – | 0.23 | 1.97 | 0.62
Q-SBL-103 (bispecific antibody, human IgG1, kappa, copies: 1 + 1 + 1 + 1) heavy 1: not shown heavy 2: EVQLVESGGGLVQPGGSLRLSCAASGYTFTNYGMNWVRQAPGKGLEWVGWINTYTGEPTYAADFKRRFTFSLDTSKSTAYLQMNSLRAEDTAVYYCAKYPHYYGSSHWYFDVWGQGTLVTVSSASTKGPSVFPLAPSSKSTSGGTAALGCLVKDYFPEPVTVSWNSGALTSGVHTFPAVLQSSGLYSLSSVVTVPSSSLGTQTYICNVNHKPSNTKVDKKVEPKSCDKTHTCPPCPAPELLGGPSVFLFPPKPKDTLMISRTPEVTCVVVDVSHEDPEVKFNWYVDGVEVHNAKTKPREEQYNSTYRVVSVLTVLHQDWLNGKEYKCKVSNKALPAPIEKTISKAKGQPREPQVCTLPPSRERMTKNQVSLWCLVKGFYPSDIAVEWESNGQPENNYKTTPPVLDSDGSFFLYSKLTVDKSRWQQGNVFSCSVMHEALHNHYTQKSLSLSPGK light 1: not shown light 2: not shown | 0.04 | 0.22 | 1.13 | –
Q-SBL-106 (bispecific antibody, human IgG1, kappa, copies: 1 + 1 + 1 + 1) heavy 1: not shown heavy 2: EVQLVESGGGLVQPGGSLRLSCAASGYTFTNYGMNWVRQAPGKGLEWVGWINTYTGEPTYAADFKRRFTFSLDTSKSTAYLQMNSLRAEDTAVYYCAKYPHYYGSSHWYFDVWGQGTLVTVSSASTKGPSVFPLAPSSKSTSGGTAALGCLVKDYFPEPVTVSWNSGALTSGVHTFPAVLQSSGLYSLSSVVTVPSSSLGTQTYICNVNHKPSNTKVDKKVEPKSCDKTHTCPPCPAPELLGGPSVFLFPPKPKDTLMISRTPEVTCVVVDVSHEDPEVKFNWYVDGVEVHNAKTKPREEQYNSTYRVVSVLTVLHQDWLNGKEYKCKVSNKALPAPIEKTISKAKGQPREPQVCTLPPSRERMTKNQVSLWCLVKGFYPSDIAVEWESNGQPENNYKTTPPVLHSDGSFFLYSKLTVDKSRWQQGNVFSCSVMHEALHNHYTQKSLSLSPGK light 1: not shown light 2: not shown | – | – | – | 0.68
Q-SBL-104 (bispecific antibody, human IgG1, kappa, copies: 1 + 1 + 1 + 1) heavy 1: not shown heavy 2: EVQLVESGGGLVQPGGSLRLSCAASGYTFTNYGMNWVRQAPGKGLEWVGWINTYTGEPTYAADFKRRFTFSLDTSKSTAYLQMNSLRAEDTAVYYCAKYPHYYGSSHWYFDVWGQGTLVTVSSASTKGPSVFPLAPSSKSTSGGTAALGCLVKDYFPEPVTVSWNSGALTSGVHTFPAVLQSSGLYSLSSVVTVPSSSLGTQTYICNVNHKPSNTKVDKKVEPKSCDKTHTCPPCPAPELLGGPSVFLFPPKPKDTLMISRTPEVTCVVVDVSHEDPEVKFNWYVDGVEVHNAKTKPREEQYNSTYRVVSVLTVLHQDWLNGKEYKCKVSNKALPAPIEKTISKAKGQPREPQVCTLPPSRREMTKNQVSLWCLVKGFYPSDIAVEWESNGQPENNYKTTPPVLHSDGSFFLYSKLTVDKSRWQQGNVFSCSVMHEALHNHYTQKSLSLSPGK light 1: not shown light 2: not shown | – | – | 1.87 | 0.68
Q-SBL-135 (bispecific antibody, human IgG1, kappa, copies: 1 + 1 + 1 + 1) heavy 1: not shown heavy 2: EVQLVESGGGLVQPGGSLRLSCAASGYTFTNYGMNWVRQAPGKGLEWVGWINTYTGEPTYAADFKRRFTFSLDTSKSTAYLQMNSLRAEDTAVYYCAKYPHYYGSSHWYFDVWGQGTLVTVSSASTKGPSVFPLAPSSKSTSGGTAALGCLVKDYFPEPVTVSWNSGALTSGVHTFPAVLQSSGLYSLSSVVTVPSSSLGTQTYICNVNHKPSNTKVDKKVEPKSCDKTHTCPPCPAPELLGGPSVFLFPPKPKDTLMISRTPEVTCVVVDVSHEDPEVKFNWYVDGVEVHNAKTKPREEQYNSTYRVVSVLTVLHQDWLNGKEYKCKVSNKALPAPIEKTISKAKGQPREPQVCTLPPSREEMTKNQVSLWCLVKGFYPSDIAVEWESNGQPENNYKTTPPVLDSDGSFFLYSVLTVDKSRWQQGNVFSCSVMHEALHNHYTQKSLSLSPGK light 1: not shown light 2: not shown | – | 0.3 | 1.38 | 0.65
Q-SBL-114 (bispecific antibody, human IgG1, kappa, copies: 1 + 1 + 1 + 1) heavy 1: not shown heavy 2: EVQLVESGGGLVQPGGSLRLSCAASGYTFTNYGMNWVRQAPGKGLEWVGWINTYTGEPTYAADFKRRFTFSLDTSKSTAYLQMNSLRAEDTAVYYCAKYPHYYGSSHWYFDVWGQGTLVTVSSASTKGPSVFPLAPSSKSTSGGTAALGCLVKDYFPEPVTVSWNSGALTSGVHTFPAVLQSSGLYSLSSVVTVPSSSLGTQTYICNVNHKPSNTKVDKKVEPKSCDKTHTCPPCPAPELLGGPSVFLFPPKPKDTLMISRTPEVTCVVVDVSHEDPEVKFNWYVDGVEVHNAKTKPREEQYNSTYRVVSVLTVLHQDWLNGKEYKCKVSNKALPAPIEKTISKAKGQPREPQVCTLPPSREEMTKNQVSLWCLVKGFYPSDIAVEWESNGQPENNYKTTPPVLHSDGSFFLYSKLTVDKSRWQQGNVFSCSVMHEALHNHYTQKSLSLSPGK light 1: not shown light 2: not shown | 0.018 | 0.23 | 1.86 | –
Q-SBL-109 (bispecific antibody, human IgG1, kappa, copies: 1 + 1 + 1 + 1) heavy 1: not shown heavy 2: EVQLVESGGGLVQPGGSLRLSCAASGYTFTNYGMNWVRQAPGKGLEWVGWINTYTGEPTYAADFKRRFTFSLDTSKSTAYLQMNSLRAEDTAVYYCAKYPHYYGSSHWYFDVWGQGTLVTVSSASTKGPSVFPLAPSSKSTSGGTAALGCLVKDYFPEPVTVSWNSGALTSGVHTFPAVLQSSGLYSLSSVVTVPSSSLGTQTYICNVNHKPSNTKVDKKVEPKSCDKTHTCPPCPAPELLGGPSVFLFPPKPKDTLMISRTPEVTCVVVDVSHEDPEVKFNWYVDGVEVHNAKTKPREEQYNSTYRVVSVLTVLHQDWLNGKEYKCKVSNKALPAPIEKTISKAKGQPREPQVCTLPPSRREMTKNQVSLWCLVKGFYPSDIAVEWESNGQPENNYKTTPPVLDSDGSFFLYSKLTVDKSRWQQGNVFSCSVMHEALHNHYTQKSLSLSPGK light 1: not shown light 2: not shown | 0.028 | 0.34 | 2.2 | 0.64
Q-SBL-102 (bispecific antibody, human IgG1, kappa, copies: 1 + 1 + 1 + 1) heavy 1: not shown heavy 2: EVQLVESGGGLVQPGGSLRLSCAASGYTFTNYGMNWVRQAPGKGLEWVGWINTYTGEPTYAADFKRRFTFSLDTSKSTAYLQMNSLRAEDTAVYYCAKYPHYYGSSHWYFDVWGQGTLVTVSSASTKGPSVFPLAPSSKSTSGGTAALGCLVKDYFPEPVTVSWNSGALTSGVHTFPAVLQSSGLYSLSSVVTVPSSSLGTQTYICNVNHKPSNTKVDKKVEPKSCDKTHTCPPCPAPELLGGPSVFLFPPKPKDTLMISRTPEVTCVVVDVSHEDPEVKFNWYVDGVEVHNAKTKPREEQYNSTYRVVSVLTVLHQDWLNGKEYKCKVSNKALPAPIEKTISKAKGQPREPQVCTLPPSREEMTKNQVSLWCLVKGFYPSDIAVEWESNGQPENNYKTTPPVLHSDGSFFLYSKLTVDKSRWQQGNVFSCSVMHEALHNHYTQKSLSLSPGK light 1: not shown light 2: not shown | 0.04 | 0.42 | 1.7 | 0.71
Q-SBL-105 (bispecific antibody, human IgG1, kappa, copies: 1 + 1 + 1 + 1) heavy 1: not shown heavy 2: EVQLVESGGGLVQPGGSLRLSCAASGYTFTNYGMNWVRQAPGKGLEWVGWINTYTGEPTYAADFKRRFTFSLDTSKSTAYLQMNSLRAEDTAVYYCAKYPHYYGSSHWYFDVWGQGTLVTVSSASTKGPSVFPLAPSSKSTSGGTAALGCLVKDYFPEPVTVSWNSGALTSGVHTFPAVLQSSGLYSLSSVVTVPSSSLGTQTYICNVNHKPSNTKVDKKVEPKSCDKTHTCPPCPAPELLGGPSVFLFPPKPKDTLMISRTPEVTCVVVDVSHEDPEVKFNWYVDGVEVHNAKTKPREEQYNSTYRVVSVLTVLHQDWLNGKEYKCKVSNKALPAPIEKTISKAKGQPREPQVCTLPPSRRRMTKNQVSLWCLVKGFYPSDIAVEWESNGQPENNYKTTPPVLDSDGSFFLYSKLTVDKSRWQQGNVFSCSVMHEALHNHYTQKSLSLSPGK light 1: not shown light 2: not shown | – | 0.43 | 1.91 | 0.71
